One data set concerns YY1 (SILAC extract). As to the kind of experiment: pull-down, SILAC MS.
A further data set addresses GST-tagged YY1(Δ231-290) (UniProt P25490). The data set is described as follows: SEC. (SEC sorts molecules by how far they enter the pores of the column.)
Data set [1] deals with T1, YY1 (Homo sapiens, UniProt P25490 1-414). The data set is described as follows: fluorescence anisotropy. A general note: Polarisation of emitted light reports the rotation of a fluorescent probe.
Data set [2] concerns the target T1, YY1. The data set is described as follows: fluorescence anisotropy. The source holds these as a separate data set.
The target of data set [3] is T2, YY1 del231-290 (Homo sapiens, UniProt P25490 1-414, del231-290). As to the kind of experiment: fluorescence anisotropy.
For data set [4], the target named is T1, YY1. As to the kind of experiment: fluorescence anisotropy. The source holds these as a separate data set.
For another data set, the target named is GST-YY1 (Homo sapiens, UniProt P25490 1-414). The data set is described as follows: fluorescence anisotropy.
Data set [5] has as its target T1, YY1. As to the kind of experiment: fluorescence anisotropy. The source holds these as a separate data set.
Data set [6] concerns the target T2, YY1 del231-290. As to the kind of experiment: fluorescence anisotropy. The source holds these as a separate data set.

Like-named read-outs stand apart in the source and are kept apart here.

With cMYC G4 biotin probe, in the data set with YY1 (SILAC extract), the binding signal (SILAC ratio G4/M4) worked out at 1.77.
On the same count and under the same terms, to cKIT G4 biotin probe belongs 1.92.
Same read-out and setting: to hTEL G4 biotin probe belongs 2.02.
The term stoichiometry N denotes the number of molecules, sites or subunits per partner or assembly. “GST-tagged YY1(Δ231-290) (from UniProt P25490 1-414)” had a stoichiometry N in the data set with GST-tagged YY1(Δ231-290) of 2.

B1: hTEL G4 (structured_DNA)
DNA: AAAGGGTTAGGGTTAGGGTTAGGGAA
One may read the Kd as the equilibrium constant for the complex coming apart. Lower therefore signals higher affinity. As to B1, in the data set with YY1 [1], binding was characterised by a dissociation constant (Kd) of 82 ± 5.3 nM.

B2: hTEL M4 (ssDNA)
DNA: AAAGGGTTAGTGTTAGTGTTAGGGAA
Regarding B2, the binding signal with YY1 [2] was > 10 fold lower affinity than hTEL G4.

B3: cKIT G4 (structured_DNA)
DNA: AGGGAGGGCGCTGGGAGGAGGG
In the case of B3, the dissociation constant Kd in the data set with YY1 [1] is 26.7 ± 2.2 nM.

B4: cMYC M4 (ssDNA)
DNA: TGAGGGTGAGGAGTGTGGGGA
As for B4, the binding signal in the data set with YY1 del231-290 [3] was ~10 fold lower affinity than cMYC G4; in the data set with YY1 [4], > 10 fold lower affinity than cMYC G4.

B5: YY1 consensus motif duplex (dsDNA)
DNA 1: TCCACGGCAGCCGCCATCTTGGCT
DNA 2: AGCCAAGATGGCGGCTGCCGTGGA
Take B5: the Kd in the data set with GST-YY1 worked out at 11.6 ± 0.8 nM.

B6: cKIT M4 (ssDNA)
DNA: AGGGAGGGCTCTGTGAGGAGGG
For the molecule B6, in the data set with YY1 [5], the binding signal is > 10 fold lower affinity than cKIT G4.

B7: cMYC G4 (structured_DNA)
DNA: TGAGGGTGGGGAGGGTGGGGA
In the case of B7, in the data set with YY1 del231-290 [6], the binding result was “binds”. In the data set with YY1 [1], this molecule yielded a Kd of 26.3 ± 2.1 nM.

These data come from PMC7854983.
